Assay results taken from patent US20240228612A1 (SICHUAN KELUN BIOTECH BIOPHARMACEUTICAL, published 2024).
Read-outs that look alike come from different tables or passages of the source. Blank lines part the entries; values can stand above or below the binder they belong to.

Legend:
[1] = biological target: T1, human Nectin-4 protein (human, UniProt Q96NY8 32-349); experiment: ELISA, coated human Nectin-4
T1 construct: Purified protein used for coating in ELISA and as analyte in Octet; also called human Nectin-4 antigen
T1 sequence (looked up): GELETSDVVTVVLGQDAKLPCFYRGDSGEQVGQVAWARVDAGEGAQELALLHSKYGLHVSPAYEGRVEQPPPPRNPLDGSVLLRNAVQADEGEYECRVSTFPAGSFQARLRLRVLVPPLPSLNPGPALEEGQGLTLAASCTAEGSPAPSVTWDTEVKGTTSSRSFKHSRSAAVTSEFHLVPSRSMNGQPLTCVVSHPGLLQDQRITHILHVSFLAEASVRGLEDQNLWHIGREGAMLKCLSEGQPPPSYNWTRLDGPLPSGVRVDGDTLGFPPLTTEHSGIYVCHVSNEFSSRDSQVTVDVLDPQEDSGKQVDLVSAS
Procedure: Human Nectin-4 (Sino Biological, Cat: 19771-H08H) was diluted to 1 μg/mL with carbonate (CBS) buffer, added to a 96-well plate at a volume of 100 μL/well, and placed at 4° C. for 16-20 h. The CBS buffer in the 96-well plate was discarded by pipetting, the plate was washed once with PBST (pH 7.4, PBS containing 0.05% Tween 20) buffer, added with 200 μL/well of skim milk powder (blocking solution) containing 2% PBST, incubated for 1 h at room temperature for blocking. The blocking solution was removed, and the plate was washed three times with PBST buffer. The anti-Nectin-4 mouse antibody to be tested was diluted with PBST/2% skim milk powder to an appropriate concentration, then added to the plate at a volume of 100 μL/well, and incubated at room temperature for 1.5 h. The reaction system was removed, and the plate was washed three times with PBST, and 50 μL/well of HRP-labeled goat anti-mouse IgG secondary antibody (purchased from the Jackson Laboratory) diluted with PBST/1% skim milk powder (dilution ratio 1:5000) was added, and incubated at room temperature for 1 h. After the plate was washed 3 times with PBST, 100 μL/well of TMB was added, and incubated at room temperature for 5-10 min for color development. The color development was stopped by adding 50 μL/well of 0.2 M sulfuric acid. Microplate reader was used to detect optical density (O.D.) at dual wavelengths 450/620 nm.

[2] = biological target: T2, human Nectin-4 on cell membrane surface (human, UniProt Q96NY8 32-510); experiment: flow cytometry on NCI-N87 cells
T2 construct: whole, on cells; also called A549-Nectin-4; T24-Nectin-4
T2 sequence (looked up): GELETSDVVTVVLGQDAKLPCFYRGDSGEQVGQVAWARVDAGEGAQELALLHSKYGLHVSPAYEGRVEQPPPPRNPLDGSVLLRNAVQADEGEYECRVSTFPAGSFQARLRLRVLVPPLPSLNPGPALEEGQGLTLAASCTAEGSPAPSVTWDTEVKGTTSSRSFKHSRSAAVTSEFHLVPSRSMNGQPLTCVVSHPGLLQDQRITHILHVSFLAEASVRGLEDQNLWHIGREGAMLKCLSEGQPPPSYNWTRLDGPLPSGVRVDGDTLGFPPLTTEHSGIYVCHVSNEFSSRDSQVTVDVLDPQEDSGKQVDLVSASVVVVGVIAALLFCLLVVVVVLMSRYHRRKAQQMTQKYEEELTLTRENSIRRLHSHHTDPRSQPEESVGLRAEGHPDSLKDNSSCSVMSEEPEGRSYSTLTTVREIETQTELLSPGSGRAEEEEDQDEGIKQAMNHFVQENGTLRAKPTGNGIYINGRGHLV

[3] = biological target: T3, cynomolgus monkey Nectin-4 protein (cynomolgus monkey); experiment: ELISA, coated cynomolgus monkey Nectin-4, anti-human-HRP
T3 construct: also called cynomolgus monkey Nectin-4 antigen

[4] = biological target: T1, human Nectin-4 protein; experiment: ELISA, coated human Nectin-4, anti-human-HRP
[5] = biological target: T2, human Nectin-4 on cell membrane surface; experiment: flow cytometry on T47D cells
Procedure: The specific steps were as follows: T47D cells were digested, resuspended by centrifugation, and washed twice with PBS; the cells were resuspended in PBS (containing 1% BSA), and spread into a 96-well tip-bottom plate at 3×10⁵ cells/well, with a volume of 50 μl per well; 50 μL of the antibody to be tested was added to each well, starting at a final concentration of […], 4-fold gradient dilution, a total of 10 concentration points; Human IgG was used as a negative control; after being mixed well, the resulting mixture was reacted in the dark at 4° C. for 1 hour; washing was performed 3 times with PBS, FITC-labeled anti-human Fc secondary antibody (brand: BioLegend, product number: 409322) was added, incubated at 4° C. for 0.5 hours in the dark; washing was performed 3 times with PBS, and detection was carried out using a flow cytometer (flow cytometer brand: Beckman, model: Cytoflex).

[6] = biological target: T1, human Nectin-4 protein; experiment: ELISA, coated human Nectin-4, anti-human-HRP; remark: listed apart in the source
[7] = biological target: T1, human Nectin-4 protein; experiment: ELISA, coated antigen
Excerpt: (§1) The affinity of anti-human Nectin-4 humanized monoclonal antibodies to Nectin-4 protein of different species was detected by ELISA.

[8] = biological target: T3, cynomolgus monkey Nectin-4 protein; experiment: ELISA, coated antigen
Excerpt: as §1

[9] = biological target: T3, cynomolgus monkey Nectin-4 protein; experiment: ELISA, coated cynomolgus monkey Nectin-4, anti-human-HRP; remark: listed apart in the source
[10] = biological target: T1, human Nectin-4 protein; experiment: ELISA, coated human Nectin-4, anti-human-HRP; remark: listed apart in the source
[11] = biological target: T1, human Nectin-4 protein; experiment: competitive ELISA, coated Nectin-4; competitor biotin-labeled Nectin-1-hFc
Procedure: Human Nectin-4 is linked to another Nectin-4 molecule or Nectin-1 molecule through the IgV domain. Because 31HZ, 56HZ and 74HZ all bind to the IgV domain of Nectin-4, the competitive activity of the three antibodies was detected by competitive ELISA. The specific steps were as follows: Nectin-4 protein was diluted to 2 μg/mL with CBS coating solution, 100 μL per well, and incubated at 37° C. for 2 hours; washing was performed once with 300 μL PBST, PBS (2% BSA) was then added, 100 μL per well, and incubation was performed at 37° C. for 2 hours; biotin-labeled Nectin-1-hFc was diluted with PBS (2% BSA) to 20 μg/mL; the antibody to be detected was diluted with PBS (2% BSA), wherein the dilution of 31HZ and 74HZ was started from 3.73 μg/mL, 3-fold dilution, and 9 concentration points, the dilution of 56HZ was started from 1.25 μg/mL, 2-fold dilution, and 10 concentration points; the above two diluted solutions were mixed well in equal volumes, and then added to the corresponding well at 100 μL/well, and incubation was performed at room temperature for 2 hours; washing was performed three times with 300 μL PBST; HRP-streptavidin was diluted with PBS (2% BSA) at a ratio of […], and added to the corresponding well at 100 μL/well, incubation was performed at room temperature for 1 hour; washing was performed five times with 300 μL of PBST; 100 μL of TMB was added to the corresponding well, color development was performed at room temperature for 10 minutes, and then terminated by adding 50 μL of 2N H₂SO₄, and a microplate reader was used for collecting readings at 450 nm.

[12] = biological target: T1, human Nectin-4 protein; experiment: BLI (Octet Fortebio), antibody on ProA sensor, Nectin-4 as analyte, 1:1 global fit
Procedure: (§2) The dynamic affinity of anti-human Nectin-4 humanized monoclonal antibodies was detected using Octet Fortebio®. The main steps comprised: firstly, the anti-human Nectin-4 humanized monoclonal antibody (concentration of 5 μg/mL) was immobilized on ProA sensor, then subjected to binding reaction with human or cynomolgus monkey Nectin-4 (gradiently diluted to 400 nM, 200 nM, 100 nM, 50 nM, 25 nM, 12.5 nM, 6.25 nM, 0 nM), and the anchored product in the solid phase obtained through fully reaction was subjected to dissociation reaction in PBST buffer. After the completion of the experiment, the results were analyzed by using Data Analysis 11.0 software at 1:1 mode to perform global fitting, thereby obtaining the affinity constant of antibody to antigen.

[13] = biological target: T3, cynomolgus monkey Nectin-4 protein; experiment: as above
Procedure: as §2

B1: anti-human Nectin-4 murine monoclonal antibody 56# (antibody, V domains shown)
VH: QVQLKESGPGLVKPSQSLSLTCTVTGYSITSDYDWHWIRHFPGNMLEWMGYISFSGRTYYNPSLKSRISITHDTSKNHFFLRLNSVTTEDTATYYCARGNYDGFDYWGQGTTLTVSS
VL: DIQLTQSPAILSVSPGERVSFSCRASQNIGTSIHWYQHRTNGSPRLLIKFASESISGIPSRFSGSGSGTDFTLSINSVESEDIADYYCQQSKSWPTYTFGGGTKLEIK
notes: Murine antibody purified by Protein A from hybridoma supernatant
EC50 [1]: 0.0363 nM

B4: Enfortumab (antibody, V domains shown)
VH: EVQLVESGGGLVQPGGSLRLSCAASGFTFSSYNMNWVRQAPGKGLEWVSYISSSSSTIYYADSVKGRFTISRDNAKNSLSLQMNSLRDEDTAVYYCARAYYYGMDVWGQGTTVTVSS
VL: DIQMTQSPSSVSASVGDRVTITCRASQGISGWLAWYQQKPGKAPKFLIYAASTLQSGVPSRFSGSGSGTDFTLTISSLQPEDFATYYCQQANSFPPTFGGGTKVEIKR
EC50 [2]: 0.0221 µg/mL | EC50 (read off the curve) [3]: ~6 ng/mL | EC50 (read off the curve) [4]: ~5 ng/mL | EC50 [5]: 0.0101 µg/mL | EC50 (read off the curve) [6]: ~9 ng/mL | EC50 [7]: 7.1 ng/mL | EC50 [8]: 6 ng/mL | EC50 (read off the curve) [9]: ~7 ng/mL | EC50 (read off the curve) [10]: ~7 ng/mL | IC50 [11]: 0.0271 µg/mL | Kd [12]: 28.3 nM | Kd [13]: 33.6 nM

More lines, in order of falling EC50 [1], values ahead:

EC50 [1]: 0.0694 nM
B3: anti-human Nectin-4 murine monoclonal antibody 74# (antibody, V domains shown)
VH: EVQLQQPGAELVRPGASVKLSCKASGYTFINYWMNWVKQRPGQGLEWIGMIHPSDSATRLNQKFKDKATLTVDKSSSTAYMQLSSPTSEDSAVYYCARWGNFYTVNAWYYFDYWGHGTTLTVSS
VL: DIVITQSPSSLAMSVGQKVTMSCKSSQTLLNSNTQKNYLAWYQQKPGQSPKLLFYFASTRESGVPDRFIGSGSGTNFTLTISSVQAEDLADYFCQQHYSTPLTFGAGTKLEIK
notes: as for B1

EC50 [1]: 0.0549 nM
B2: anti-human Nectin-4 murine monoclonal antibody 31# (antibody, V domains shown)
VH: EVQLQQPGADLVRPGASVKLSCKASGYTFTDYWMNWVKLRPGQGLEWIGMIHPSDSETRLNQKFKDKATLTVDKSSSTAYMQLSSPTSEDSAVYYCARWDFRIYYAMDYWGQGTSVTVSS
VL: DVVITQSPSSLAMSVGQKVTMSCKSSQSLLNTNSQKNYLAWYQQKPGQSPKLLVYFASTRESGVPDRFIGSGSGTDFTLTITSVQAEDLADYFCQQHYSTPLTFGAGTKLEIK
notes: as for B1
